Holding throughout (assay): SPR, antibody captured, C2 as analyte;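 note: biacore SPR at 37 °C, anti-C2 mAbs captured via goat anti-human IgG on CM5 chips, double-referenced sensorgrams fit to a 1:1 kinetic or steady-state model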
For orientation: In SPR one partner is held on a chip, and binding of the other changes the refractive index at the surface.

One experiment addresses T1, human C2 G466A (human, UniProt P06681 21-752).
T1 sequence: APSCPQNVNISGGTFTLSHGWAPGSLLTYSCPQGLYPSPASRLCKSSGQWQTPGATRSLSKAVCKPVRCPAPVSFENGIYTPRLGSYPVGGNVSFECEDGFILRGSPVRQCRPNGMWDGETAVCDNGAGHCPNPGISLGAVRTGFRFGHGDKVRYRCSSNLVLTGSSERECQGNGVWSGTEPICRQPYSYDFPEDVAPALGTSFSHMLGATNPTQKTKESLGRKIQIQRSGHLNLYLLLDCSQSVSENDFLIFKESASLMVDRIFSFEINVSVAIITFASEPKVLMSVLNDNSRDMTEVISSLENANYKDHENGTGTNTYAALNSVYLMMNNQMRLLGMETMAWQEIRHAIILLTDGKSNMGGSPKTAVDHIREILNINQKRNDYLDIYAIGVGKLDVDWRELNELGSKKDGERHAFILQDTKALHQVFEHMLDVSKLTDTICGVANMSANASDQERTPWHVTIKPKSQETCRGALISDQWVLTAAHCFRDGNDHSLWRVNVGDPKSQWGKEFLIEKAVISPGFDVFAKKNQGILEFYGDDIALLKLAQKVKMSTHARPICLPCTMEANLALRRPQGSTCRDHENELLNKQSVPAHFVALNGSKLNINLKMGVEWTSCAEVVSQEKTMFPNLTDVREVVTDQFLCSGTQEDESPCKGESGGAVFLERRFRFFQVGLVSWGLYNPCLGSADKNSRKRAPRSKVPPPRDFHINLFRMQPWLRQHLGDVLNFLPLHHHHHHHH

Another experiment concerns the target T2, human C2 P724A (human, UniProt P06681 21-752).
T2 sequence: T1 sequence with A446G, P704A

The next experiment deals with T3, human C2 S456A (human, UniProt P06681 21-752).
T3 sequence: T1 sequence with S436A, A446G

For another experiment, the target named is T4, human C2 R519A (human, UniProt P06681 21-752).
T4 sequence: T1 sequence with A446G, R499A

One molecule from patent publication US20220332804A1 (CSL INNOVATION, published 2022) can be followed below.

Changes are numbered by the printed parent chain.

B1: RF16-226 (antibody, human IgG4 S228P, lambda)
heavy: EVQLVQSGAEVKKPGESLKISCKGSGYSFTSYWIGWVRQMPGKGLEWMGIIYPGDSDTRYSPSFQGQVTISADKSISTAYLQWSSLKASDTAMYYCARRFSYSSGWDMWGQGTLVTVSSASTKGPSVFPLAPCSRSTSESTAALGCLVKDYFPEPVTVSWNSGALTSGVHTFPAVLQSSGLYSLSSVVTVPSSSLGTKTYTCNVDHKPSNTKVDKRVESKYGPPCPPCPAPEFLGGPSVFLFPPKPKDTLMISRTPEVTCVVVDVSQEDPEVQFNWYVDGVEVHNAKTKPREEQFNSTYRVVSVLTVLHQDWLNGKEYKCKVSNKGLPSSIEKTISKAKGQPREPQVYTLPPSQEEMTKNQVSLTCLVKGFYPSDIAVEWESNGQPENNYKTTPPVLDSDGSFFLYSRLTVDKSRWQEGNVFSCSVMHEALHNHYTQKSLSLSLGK
light: SYELTQPPSVSVSPGQTARITCSGDALTSKYVAWYQQKSGLAPLLVIYEDTRRPSGIPAKFSGSSSGSVATLTISGAHGDDEADYYCYSTDASGHQRVFGGGTKLTVLSQPKAAPSVTLFPPSSEELQANKATLVCLISDFYPGAVTVAWKADGSPVKAGVETTKPSKQSNNKYAASSYLSLTPEQWKSHRSYSCQVTHEGSTVEKTVAPTECS
notes: pH-dependent anti-C2 antibody from a phage display library; also called WT
Usually Kd stands for the concentration at which binding is half-saturated. Turning to B1, the dissociation constant (Kd) amounted to 32.4 nM with human C2 G466A, 397 nM in the experiment with human C2 P724A, 71.8 nM with human C2 S456A and 11.2 nM in the experiment with human C2 R519A.
